Data from the supplement of paper PMC11246515.
± gives the standard deviation of the averaged measurements.

Assay: total protein half-life in vivo (active degradation + dilution); higher = more stable protein
[1] = E. coli NCM3722 delta-clpP delta-lon delta-hslV, growth: N-lim chemostat, doubling time 6 h
[2] = E. coli NCM3722 delta-clpP, growth: N-lim chemostat, doubling time 6 h
[3] = E. coli NCM3722 delta-smpB, growth: N-lim chemostat, doubling time 6 h
[4] = wild type E. coli NCM3722, growth: C-lim chemostat, doubling time 3 h
[5] = wild type E. coli NCM3722, growth: C-lim chemostat, doubling time 6 h
[6] = wild type E. coli NCM3722, growth: C-lim chemostat, doubling time 12 h
[7] = wild type E. coli NCM3722, growth: N-lim chemostat, doubling time 6 h
[8] = wild type E. coli NCM3722, growth: N-lim chemostat, doubling time 12 h
[9] = wild type E. coli NCM3722, growth: P-lim chemostat, doubling time 6 h
[10] = wild type E. coli NCM3722, growth: P-lim chemostat, doubling time 12 h
[11] = E. coli NCM3722 delta-hslV, growth: N-lim chemostat, doubling time 6 h
[12] = E. coli NCM3722 delta-lon, growth: N-lim chemostat, doubling time 6 h

| Sequence | total protein half-life in vivo [1] | total protein half-life in vivo [2] | total protein half-life in vivo [3] | total protein half-life in vivo [4] | total protein half-life in vivo [5] | total protein half-life in vivo [6] | total protein half-life in vivo [7] | total protein half-life in vivo [8] | total protein half-life in vivo [9] | total protein half-life in vivo [10] | total protein half-life in vivo [11] | total protein half-life in vivo [12] |
| --- | --- | --- | --- | --- | --- | --- | --- | --- | --- | --- | --- | --- |
| MRIGQYQLRNRLIAAPMAGITDRPFRTLCYEMGAGLTVSEMMSSNPQVWESDKSRLRMVHIDEPGIRTVQIAGSDPKEMADAARINVESGAQIIDINMGCPAKKVNRKLAGSALLQYPDVVKSILTEVVNAVDVPVTLKIRTGWAPEHRNCEEIAQLAEDCGIQALTIHGRTRACLFNGEAEYDSIRAVKQKVSIPVIANGDITDPLKARAVLDYTGADALMIGRAAQGRPWIFREIQHYLDTGELLPPLPLAEVKRLLCAHVRELHDFYGPAKGYRIARKHVSWYLQEHAPNDQFRRTFNAIEDASEQLEALEAYFENFA [P0ABT5] | 4.65 ± 0.67 h | 3.28 h | 2.21 ± 0.077 h | 2.88 ± 0.28 h | 3.67 ± 0.67 h | 6.75 ± 0.78 h | 2.23 h | 3.47 h | 5.13 ± 0.28 h | 8.25 ± 0.84 h | – | – |
| MPIYQIDGLTPVVPEESFVHPTAVLIGDVILGKGVYVGPNASLRGDFGRIVVKDGANIQDNCVMHGFPEQDTVVGEDGHIGHSAILHGCIIRRNALVGMNAVVMDGAVIGENSIVGASAFVKAKAEMPANYLIVGSPAKAIRELSEQELAWKKQGTHEYQVLVTRCKQTLHQVEPLREIEPGRKRLVFDENLRPKQ | 5.05 ± 0.96 h | 4.12 ± 0.18 h | 3.9 ± 0.21 h | 3.49 ± 0.39 h | – | 11.6 ± 2.7 h | 4.19 ± 0.87 h | 6.81 h | 5.81 ± 0.34 h | 12.9 ± 0.92 h | 4.15 ± 0.16 h | 5.43 ± 0.8 h |
| MNMTKGALILSLSFLLAACSSIPQNIKGNNQPDIQKSFVAVHNQPGLYVGQQARFGGKVINVINGKTDTLLEISVLPLDSYAKPDIEANYQGRLLARQSGFLDPVNYRNHFVTILGTIQGEQPGFINKVPYNFLEVNMQGIQVWHLREVVNTTYNLWDYGYGAFWPEPGWGAPYYTNAVSQVTPELVK | – | 6.72 ± 0.84 h | 6.62 ± 0.25 h | – | – | 14.6 h | – | 12.8 ± 0.086 h | 5.75 ± 0.59 h | 12.6 ± 1 h | 6.43 ± 0.72 h | – |
| MTAKTAPKVTLWEFFQQLGKTFMLPVALLSFCGIMLGIGSSLSSHDVITLIPVLGNPVLQAIFTWMSKIGSFAFSFLPVMFCIAIPLGLARENKGVAAFAGFIGYAVMNLAVNFWLTNKGILPTTDAAVLKANNIQSILGIQSIDTGILGAVIAGIIVWMLHERFHNIRLPDALAFFGGTRFVPIISSLVMGLVGLVIPLVWPIFAMGISGLGHMINSAGDFGPMLFGTGERLLLPFGLHHILVALIRFTDAGGTQEVCGQTVSGALTIFQAQLSCPTTHGFSESATRFLSQGKMPAFLGGLPGAALAMYHCARPENRHKIKGLLISGLIACVVGGTTEPLEFLFLFVAPVLYVIHALLTGLGFTVMSVLGVTIGNTDGNIIDFVVFGILHGLSTKWYMVPVVAAIWFVVYYVIFRFAITRFNLKTPGRDSEVASSIEKAVAGAPGKSGYNVPAILEALGGADNIVSLDNCITRLRLSVKDMSLVNVQALKDNRAIGVVQLNQHNLQVVIGPQVQSVKDEMAGLMHTVQA | – | – | – | 1.42 ± 0.085 h | – | 2.5 ± 0.29 h | – | – | – | – | – | – |
| MLSYRHSFHAGNHADVLKHTVQSLIIESLKEKDKPFLYLDTHAGAGRYQLGSEHAERTGEYLEGIARIWQQDDLPAELEAYINVVKHFNRSGQLRYYPGSPLIARLLLREQDSLQLTELHPSDYPLLRSEFQKDSRARVEKADGFQQLKAKLPPVSRRGLILIDPPYEMKTDYQAVVSGIAEGYKRFATGIYALWYPVVLRQQIKRMIHDLEATGIRKILQIELAVLPDSDRRGMTASGMIVINPPWKLEQQMNNVLPWLHSKLVPAGTGHATVSWIVPE | 4.85 ± 0.21 h | 5.06 ± 0.45 h | 4.87 ± 0.07 h | 3.16 ± 0.27 h | 6.11 ± 0.47 h | 10.7 ± 0.25 h | 5.06 ± 0.073 h | 8.35 ± 0.22 h | 6.55 ± 0.2 h | 14 ± 2.8 h | 4.81 ± 0.14 h | 4.96 ± 0.05 h |
| MKNNSQLLMPREKMLKFGISALTDVELLALFLRTGTRGKDVLTLAKEMLENFGSLYGLLTSEYEQFSGVHGIGVAKFAQLKGIAELARRYYNVRMREESPLLSPEMTREFLQSQLTGEEREIFMVIFLDSQHRVITHRRLFSGTLNHVEVHPREIIREAIKINASALILAHNHPSGCAEPSKADKLITERIIKSCQFMDLRVLDHIVIGRGEYVSFAERGWI | – | – | – | 3.03 h | – | – | 4.31 h | – | – | – | – | – |
| MNMLALTIILPLIGFVLLAFSRGRWSENVSAIVGVGSVGLAALVTAFIGVDFFANGEQTYSQPLWTWMSVGDFNIGFNLVLDGLSLTMLSVVTGVGFLIHMYASWYMRGEEGYSRFFAYTNLFIASMVVLVLADNLLLMYLGWEGVGLCSYLLIGFYYTDPKNGAAAMKAFVVTRVGDVFLAFALFILYNELGTLNFREMVELAPAHFADGNNMLMWATLMLLGGAVGKSAQLPLQTWLADAMAGPTPVSALIHAATMVTAGVYLIARTHGLFLMTPEVLHLVGIVGAVTLLLAGFAALVQTDIKRVLAYSTMSQIGYMFLALGVQAWDAAIFHLMTHAFFKALLFLASGSVILACHHEQNIFKMGGLRKSIPLVYLCFLVGGAALSALPLVTAGFFSKDEILAGAMANGHINLMVAGLVGAFMTSLYTFRMIFIVFHGKEQIHAHAVKGVTHSLPLIVLLILSTFVGALIVPPLQGVLPQTTELAHGSMLTLEITSGVVAVVGILLAAWLWLGKRTLVTSIANSAPGRLLGTWWYNAWGFDWLYDKVFVKPFLGIAWLLKRDPLNSMMNIPAVLSRFAGKGLLLSENGYLRWYVASMSIGAVVVLALLMVLR | 7.03 ± 0.33 h | 7.32 ± 0.33 h | 6.017 ± 0.032 h | 3.23 h | 7.19 ± 1.1 h | 12.1 ± 1.4 h | – | 15.6 h | 6.74 ± 0.88 h | 11.1 ± 1.1 h | 6.62 ± 0.33 h | 5.89 ± 0.59 h |
